Assay results from the supplement of paper PMC9170038.

System: MS2 coat protein
Assay: apparent KD of MS2 coat protein; designed switch direction (-1 OFF switch, 1 ON switch): -1; higher = weaker reporter binding
How it was run: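 For each design, the apparent KD is the median over clusters of curves fitted to normalised cluster fluorescence. Clusters held RNA switches with common flanks, transcribed on Illumina chips by stalled E. coli RNA polymerase. These were titrated with SNAP-549-labelled MS2 coat protein, doubling from 0.7 or 1.5 nM to 3 µM, without input, with 200 uM small-molecule ligand, or with an oligonucleotide input.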

[1] = Eterna round: R95, input ligand: FMN 200 uM
[2] = Eterna round: R95, input ligand: microRNA oligo, concentration not stated
[3] = Eterna round: R95, input ligand: none
[4] = input ligand: microRNA oligo, concentration not stated

Sequence | apparent KD of MS2 coat protein (input ligand: FMN 200 uM) | apparent KD of MS2 coat protein (input ligand: none) | apparent KD of MS2 coat protein [1] | apparent KD of MS2 coat protein [2] | apparent KD of MS2 coat protein [3] | apparent KD of MS2 coat protein [4]
AGCUUUUUGCUCGUCUUAUACAUGAGGAUCACCCAUGUAUUGGACCACAUCGAUAGAUGUGGGCCAAGAAGCAUGGG [Omdei Mir OFFv1 C2] (Eterna round: R97, puzzle: Sensor, turn-off variant 1) | 133 nM | 176 nM | – | – | – | –
CCGAGGUGGCGGUCCUAUGACAUGAGGAUCACCCAUGUACCUCGCCACAAGCUUUUUGCUCAUCUUAUAAUUCUCGG [Gelelebius] (puzzle: Sensor v3, turn-off variant 1) | – | – | 18 nM | 117 nM | 16.1 nM | –
UAUUAGCAAGCAACUGGGUACAUGAGGAUCACCCAUGUGCUCGUCUUAUAAGGUACUGUUACGAAAGUCACGGUACC [mod--Eli12] (Eterna round: R97, puzzle: Sensor, turn-off variant 1) | 17.3 nM | 15.9 nM | – | – | – | –
ACCUCACAUGAGGAUCACCCAUGUCAGGAUAUCUGAUGUAGUCCCGUUCCGGACGCUGAGAGAAGGGACGUUGA [EX1 #39] (Eterna round: R97, puzzle: Exclusion 1) | 38.9 nM | 51.6 nM | – | – | – | –
GCGCCAUCGUGAGAUGGCGUAUAUACAUGAGGAUCACCCAUGUAGGAUAUCGAUUGCUUUGCAGUCGAGAAGGGCGUGAUAAUU [JL ENG3 3.69] (Eterna round: R96, puzzle: Exclusion NG 3) | 109 nM | 82 nM | – | – | – | 60.5 nM
ACAUGAGGAUCACCCAUGUCAGGUUGGUUCUCUCCGGCUGUUGAGGAUAUAGUCCGGUAUCCGCGCUAGAAGGUGAGGGCUGGC [Aenatbe mod 14] (Eterna round: R96, puzzle: Exclusion NG 3) | 19.6 nM | 25.1 nM | – | – | – | 20.1 nM
UAUAAGAUAGGAUAUACAGGCCCGUCUUCAUAUCGAUCCCGACAUGAGGAUCACCCAUGUAGAAGGAUCGUAUA [Mod 22 - Jieux - Exclusion 2] (Eterna round: R97, puzzle: Exclusion 2) | 15 nM | 8.25 nM | – | – | – | –
GCGCAAACGCCAAAAGGCGAAACAACAUGAGGAUCACCCAUGUAGGAUAUCGAUUGCUUUGCAGUCGAGAAGGGCAUAAUGCGC [JL ENG3 3.80 Mod 4] (Eterna round: R96, puzzle: Exclusion NG 3) | 15.4 nM | 16.6 nM | – | – | – | 13 nM
GGCCCUAAGGUCAGAUCCACAAGCUUUUUGCUCGUUUUAACAUGAGGAUCACCCAUGUCUAGUGGAUCUGAUCCUCU [Sensor v3, turn-off variant 2 (MOD of Indiso v.4)] (puzzle: Sensor v3, turn-off variant 2) | – | – | 25.2 nM | 15.4 nM | 21.6 nM | –
UUUAAUUUUUUUUUUUUACAAGCUUUUUGCUCGUCUUAUACAUGAGGAUCACCCAUGUGAGUGGAGGGUAAAUUAUC [JMF 88] (puzzle: Sensor v3, turn-off variant 2) | – | – | 17.8 nM | 45.8 nM | 16.3 nM | –
CGGCAUGUACAAGGAUAUCAGCACGAUUAGUGCUGAGAAGGUGUAACAUGAGGAUCACCCAUGUAGAUCAUUAACCGAUUAAUU [ENG1/9-A2] (Eterna round: R96, puzzle: Exclusion NG 1) | 145 nM | 60.7 nM | – | – | – | 64.3 nM
GAAGGACGAGGAUAUGUAUGGGACAGCCGAGGAAAAUCUCAACAUGAGGAUCACCCAUGUAGAAGGCGUGCCCG [Eternabot (Original) Solution 44] (Eterna round: R97, puzzle: Exclusion 2) | 16.4 nM | 14.1 nM | – | – | – | –
GAAUAGCAAGCGAGAUCCCACAUGAGGAUCACCCAUGUGCUCGUCUUAUAAAGUACUGUGACGAUAGUCACGGUACA [Mat - Sensor, turn-off var - Eli Mod - D13] (Eterna round: R97, puzzle: Sensor, turn-off variant 1) | 16.5 nM | 14.9 nM | – | – | – | –
GGUUGGCGAGGAUAUACAUGAGGAUCACCCAUGUGAGAGAAAAAAGUGAGGAAGACAAGUAGAAGGCGCUGACG [salish99_ex3_r3_035] (puzzle: Exclusion 3) | – | – | 8540 nM | 237 nM | 125 nM | –
GGUGCUGGCGCGUCGGUGUUGGUGCAAUAAGCUUGUGAAACAUGAGGAUCACCCAUGUCCUCAUAAGCUCGUCUUAU [salish99_TOv2_r2_086] (Eterna round: R96, puzzle: Sensor v3, turn-off variant 2) | 13.7 nM | 17.7 nM | – | – | – | 334 nM
UUUGCAAGCUAUAGAUCCCACAUGAGGAUCACCCAUGUUGCUGCCGUGAGGUAGCAUUUAACUAUUGCUCGUCUUAU [JL TOV1 3.51] (Eterna round: R97, puzzle: Sensor, turn-off variant 1) | 190 nM | 245 nM | – | – | – | –
GUGGGUUACAUGAGGAUCACCCAUGUAUAGUGGGAAGAGAUAUAGGAUAUAAUGUAAAAAUUAUAUUAGAAGGAUAGAGACUAG [AK ExNG3-1.3] (Eterna round: R96, puzzle: Exclusion NG 3) | 344 nM | 553 nM | – | – | – | 135 nM

Sequence | apparent KD of MS2 coat protein (input ligand: FMN 200 uM) | apparent KD of MS2 coat protein (input ligand: none) | apparent KD of MS2 coat protein [1] | apparent KD of MS2 coat protein [2] | apparent KD of MS2 coat protein [3] | apparent KD of MS2 coat protein [4]
UUAUAUAGUGUGAGGAUAUGCUGGUCCUUGGAUCAGCAGAAGGCACAUGAGGAUCACCCAUGUAGUUAAUAAUA [Mat - Exclusion 4 - JL Mod - D16] (puzzle: Brourd's mod of Exclusion 4) | – | – | 131 nM | 30 nM | 42.8 nM | –
GGAGAGAUAUAGGAUAUGGGAGGGAGGACCGGACCAGAAGGAUAGACAUGAGGAUCACCCAUGUAGAGAUCCUC [AK-MS2ROC-r4-exclusion6-6.1] (Eterna round: R97, puzzle: Exclusion 6) | 302 nM | 270 nM | – | – | – | –
UUAUCCGCUGAGGAUAUUAUCAGUGAGAGCUGAUGAGAAGGCGGUACAUGAGGAUCACCCAUGUCUAUGGGCAG [Ex-6 Malc#24] (puzzle: Exclusion 6) | – | – | 472 nM | 337 nM | 435 nM | –
AAAAGCUAAGGAUAUACAUGAGGAUCACCCAUGUACACCGGUACGGGUGCGAACUCCUGUAGAAGGUGGGAUAA [Atatlege] (puzzle: Exclusion 3) | – | – | – | 121 nM | – | –
AGGAGCAGAGGGAGAUCCAACAUGAGGAUCACCCAUGUCUCAUAAGCUUUUUGCUCAUCUUAUUGUACCUUGGUGCA [Mat - Sensor v3 - turn-off var 1 - JL Mod - D27] (puzzle: Sensor v3, turn-off variant 1) | – | – | 29.2 nM | 12.5 nM | 22.3 nM | –
GGGAAGAACCAACAAGUAGACAUGAGGAUCACCCAUGUAGACUUCAUGUGCACGCAAAGCGUGCAAGCUCGUCUUAU [AK-miRNA-r3-14.4] (Eterna round: R97, puzzle: Sensor, turn-off variant 1) | 22.9 nM | 19.8 nM | – | – | – | –
UAUAUAUAGUAAGGAUAUGUAAUUAUUUUAUCAACAGAAGGUACUGACAUGAGGAUCACCCAUGUUUUAGUGUGGGCAUGUAGA [JMF's solution 49] (Eterna round: R96, puzzle: Exclusion NG 1) | – | – | – | – | – | 61.7 nM
UCAUAACAUGAGGAUCACCCAUGUCAGGAUAUGAUACUAUGUACUUCGGUACAUAGUAUCAGAAGGGACAUACU [Ex1-3: 12] (puzzle: Exclusion 1) | – | – | – | 103 nM | – | –
ACAAGCUUUUAGAUUCUUAACAUGAGGAUCACCCAUGUGCUCGUCUUACCGGCCGGCGGGCCGCCGGCCGGGCUUGU (Eterna round: R97, puzzle: Sensor, turn-off variant 1) | 18.5 nM | 18.5 nM | – | – | – | –
GCUGGACAAGGAUAUGCAAUCGUGCUUCGGCACGUAAGGUCACAUGAGGAUCACCCAUGUAGAAGGUGUCCAGC [E2/4-C2] (Eterna round: R97, puzzle: Exclusion 2) | 31.3 nM | 16.1 nM | – | – | – | –
GCGUCGAGUGUGAGGAUAUGCUGGUCCUUGGAUCAGCAGAAGGCACAUGAGGAUCACCCAUGUGAAAACGAUGC [Mat - Exclusion 4 - JL Mod - D68] (puzzle: Brourd's mod of Exclusion 4) | – | – | – | 18.8 nM | – | –
CCUCAGUAAGGAUAUCAGCUUAUAGAGUUGGUAAUGAGAGCUGAGAAGGUACAUGAGGAUCACCCAUGUUAGUU [JL Zatite mod 3] (puzzle: Exclusion 4) | – | – | – | 23.5 nM | – | –
GGCCGUAAUAAGGAUAUCACUAGCCUCGGCUAGUGAGAAGGUAUUACAUGAGGAUCACCCAUGUGAUCAGGCCA [E6/3-B2] (Eterna round: R97, puzzle: Exclusion 6) | 862 nM | 160 nM | – | – | – | –
UUACGAUUGCUAGGAUAUCCACGAAUAGCUCCGGGAGAAGGAGCUCUCGUACAUGAGGAUCACCCAUGUCAGGGUGUCCAAUUU [Onraedin] (Eterna round: R96, puzzle: Exclusion NG 1) | 38.1 nM | 40.7 nM | – | – | – | 21.4 nM
GUCAGCUCGUGAGGAUAUGAACAUGAGGAUCACCCAUGUAAGAUCAAGCUGCUUCGGCAGCAAGUUCAGAAGGUACGAGCUGAC [ENG2/10-C1] (Eterna round: R96, puzzle: Exclusion NG 2) | 150 nM | 130 nM | – | – | – | 77.5 nM
GCCGAUUAAGUCAGGAUAUACCUAUGGAUACAUAGGUAGAAGGGACAUGAGGAUCACCCAUGUGCCUCAACGGC [Fiskers BMX 4 - 18] (puzzle: Brourd's mod of Exclusion 4) | – | – | 71.7 nM | 18.9 nM | 22.7 nM | –
